{"source": "patent US20220098256A1", "about": "(TOKUSHIMA UNIVERSITY, published 2022)", "molecules": {"B1": {"name": "PHB2 sequence-derived peptide No. 36 (peptide)", "peptide": "LKDLAGRLPAGP", "modifications": "not fully specified (C-terminus)"}, "B2": {"name": "PHB2 sequence-derived peptide No. 37 (peptide)", "peptide": "DLAGRLPAGPRG", "modifications": "not fully specified (C-terminus)"}, "B3": {"name": "PHB2 sequence-derived peptide No. 38 (peptide)", "peptide": "AGRLPAGPRGMG", "modifications": "not fully specified (C-terminus)"}, "B4": {"name": "PHB2 sequence-derived peptide No. 39 (peptide)", "peptide": "PAGPRGMGTALK", "modifications": "not fully specified (C-terminus)"}, "B5": {"name": "PHB2 sequence-derived peptide No. 40 (peptide)", "peptide": "GPRGMGTALKLL", "modifications": "not fully specified (C-terminus)"}, "B6": {"name": "PHB2 sequence-derived peptide No. 6 (86-100aa) (peptide)", "peptide": "RPRKISSPTGSKDLQRRRRRRRR-NH2"}, "B7": {"name": "PHB2 peptide 11-90aa (peptide)", "peptide": "RLPAGPRGMGTALKLLLGAGAVAYGVRESVFTVEGGHRAIFFNRIGGVQQDTILAEGLHFRIPWFQYPIIYDIRARPRKI"}, "B8": {"name": "cyclic PHB2 peptide 11-21aa (peptide)", "peptide": "CRLPAGPRG[Nle]GTCF[Nal]RRRR", "modifications": "disulfide 1-13; not fully specified; also: amide bond between the added C-terminal and N-terminal residues (cyclic)"}, "B9": {"name": "cyclic PHB2 peptide 76-88aa (peptide)", "peptide": "CQYPIIYDIRARPRCF[Nal]RRRR", "modifications": "disulfide 1-15 (inferred); not fully specified; also: X17: an unnatural amino acid, amide bond between the added C-terminal and N-terminal residues (cyclic)"}, "B10": {"name": "alanine-mutated PHB2 peptide No. 59 (peptide)", "peptide": "RLPAAPRGMGTA", "modifications": "not fully specified (C-terminus)"}, "B11": {"name": "alanine-mutated PHB2 peptide No. 62 (peptide)", "peptide": "RLPAGPRAMGTA", "modifications": "not fully specified (C-terminus)"}, "B12": {"name": "alanine-mutated PHB2 peptide No. 71 (peptide)", "peptide": "QYPIAYDIRARPRKI", "modifications": "not fully specified (C-terminus)"}, "B13": {"name": "alanine-mutated PHB2 peptide No. 72 (peptide)", "peptide": "QYPIIADIRARPRKI", "modifications": "not fully specified (C-terminus)"}, "B14": {"name": "alanine-mutated PHB2 peptide No. 73 (peptide)", "peptide": "QYPIIYAIRARPRKI", "modifications": "not fully specified (C-terminus)"}, "B15": {"name": "PHB2 sequence-derived peptide No. 2 (42-50aa) (peptide)", "peptide": "TVEGGHRAIRRRRRRRR-NH2"}, "B16": {"name": "PHB2 sequence-derived peptide No. 3 (38-50aa) (peptide)", "peptide": "ESVFTVEGGHRAIRRRRRRRR-NH2"}, "B17": {"name": "PHB2 sequence-derived peptide No. 82 (peptide)", "peptide": "EGGHRAIFFNRIGG", "modifications": "not fully specified (C-terminus)"}, "B18": {"name": "PHB2 sequence-derived peptide No. 83 (peptide)", "peptide": "ESVFTVEGGHRAIFFNRIGG", "modifications": "not fully specified (C-terminus)"}, "B19": {"name": "PHB2 peptide 11-22aa with glycines at positions 15 and 18 substituted with D-leucines (peptide)", "peptide": "RLPA[dL]PR[dL]MGTARRRRRRRR", "modifications": "not fully specified (C-terminus)"}}, "key": {"[1]": {"target": "brefeldin A-inhibited guanine nucleotide-exchange protein 3 (BIG3) (human) (UniProt Q5TH69)", "sequence (Q5TH69 whole entry)": "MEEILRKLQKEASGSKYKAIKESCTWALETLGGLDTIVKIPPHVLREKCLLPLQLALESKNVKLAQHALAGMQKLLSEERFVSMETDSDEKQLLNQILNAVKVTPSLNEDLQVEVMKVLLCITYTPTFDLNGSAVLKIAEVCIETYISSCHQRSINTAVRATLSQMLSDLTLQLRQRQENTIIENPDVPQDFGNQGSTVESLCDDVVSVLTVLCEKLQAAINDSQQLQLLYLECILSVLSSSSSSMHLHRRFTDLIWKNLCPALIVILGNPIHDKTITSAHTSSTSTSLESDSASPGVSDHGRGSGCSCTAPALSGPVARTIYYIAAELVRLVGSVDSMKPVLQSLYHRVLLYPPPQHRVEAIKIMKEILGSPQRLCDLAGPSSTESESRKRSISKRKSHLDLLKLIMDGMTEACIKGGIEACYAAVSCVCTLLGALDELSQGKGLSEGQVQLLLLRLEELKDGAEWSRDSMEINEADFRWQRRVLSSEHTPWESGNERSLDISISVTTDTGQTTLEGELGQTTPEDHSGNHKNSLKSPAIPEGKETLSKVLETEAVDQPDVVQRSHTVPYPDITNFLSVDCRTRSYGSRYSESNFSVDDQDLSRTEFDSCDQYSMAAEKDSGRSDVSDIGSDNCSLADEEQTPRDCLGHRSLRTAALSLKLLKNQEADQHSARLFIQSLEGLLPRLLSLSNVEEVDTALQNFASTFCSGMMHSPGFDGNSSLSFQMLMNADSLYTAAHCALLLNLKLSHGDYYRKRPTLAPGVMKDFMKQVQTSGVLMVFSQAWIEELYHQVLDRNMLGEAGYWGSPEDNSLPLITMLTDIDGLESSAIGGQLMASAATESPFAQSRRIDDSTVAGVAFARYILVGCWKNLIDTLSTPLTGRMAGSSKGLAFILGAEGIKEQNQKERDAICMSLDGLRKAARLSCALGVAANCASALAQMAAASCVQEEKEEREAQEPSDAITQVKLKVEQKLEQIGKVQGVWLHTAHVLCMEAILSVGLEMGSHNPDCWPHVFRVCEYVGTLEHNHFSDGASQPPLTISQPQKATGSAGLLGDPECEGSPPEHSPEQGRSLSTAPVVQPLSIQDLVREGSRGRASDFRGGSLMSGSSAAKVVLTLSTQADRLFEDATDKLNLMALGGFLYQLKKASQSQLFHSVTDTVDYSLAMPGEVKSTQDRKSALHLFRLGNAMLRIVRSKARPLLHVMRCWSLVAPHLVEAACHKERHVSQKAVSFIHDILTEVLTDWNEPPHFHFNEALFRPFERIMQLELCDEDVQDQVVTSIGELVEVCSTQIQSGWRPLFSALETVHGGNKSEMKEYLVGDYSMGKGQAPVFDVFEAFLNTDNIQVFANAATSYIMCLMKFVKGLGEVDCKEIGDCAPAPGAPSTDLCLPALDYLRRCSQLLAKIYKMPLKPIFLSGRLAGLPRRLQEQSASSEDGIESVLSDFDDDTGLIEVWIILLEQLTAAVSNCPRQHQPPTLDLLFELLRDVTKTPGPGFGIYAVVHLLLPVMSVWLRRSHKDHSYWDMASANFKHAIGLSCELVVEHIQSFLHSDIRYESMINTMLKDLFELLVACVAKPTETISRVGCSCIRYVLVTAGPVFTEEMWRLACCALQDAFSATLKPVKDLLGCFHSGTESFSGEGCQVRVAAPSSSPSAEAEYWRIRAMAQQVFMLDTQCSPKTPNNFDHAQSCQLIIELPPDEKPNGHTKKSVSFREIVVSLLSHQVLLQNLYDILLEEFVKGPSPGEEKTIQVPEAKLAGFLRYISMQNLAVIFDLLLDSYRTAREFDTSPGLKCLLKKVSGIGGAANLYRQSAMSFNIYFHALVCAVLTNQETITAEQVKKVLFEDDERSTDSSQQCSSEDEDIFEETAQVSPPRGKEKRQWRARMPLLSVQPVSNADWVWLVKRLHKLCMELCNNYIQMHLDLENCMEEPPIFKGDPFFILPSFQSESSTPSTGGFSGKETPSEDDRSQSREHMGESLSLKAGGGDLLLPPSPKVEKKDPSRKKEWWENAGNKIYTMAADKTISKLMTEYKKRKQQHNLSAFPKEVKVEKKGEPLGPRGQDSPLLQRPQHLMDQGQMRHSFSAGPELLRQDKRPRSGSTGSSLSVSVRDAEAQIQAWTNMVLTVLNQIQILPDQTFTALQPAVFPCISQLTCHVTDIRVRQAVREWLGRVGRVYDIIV", "test": "cell-based or functional assay"}, "[2]": {"target": "brefeldin A-inhibited guanine nucleotide-exchange protein 3 (BIG3) (human) (UniProt Q5TH69)", "test": "co-immunoprecipitation with anti-BIG3 antibody from peptide-treated MCF-7 cells, PHB2 immunoblot, band area against untreated cells; 50 µM peptide"}, "[3]": {"target": "brefeldin A-inhibited guanine nucleotide-exchange protein 3 (BIG3) (human) (UniProt Q5TH69)", "test": "co-immunoprecipitation from peptide-treated MCF-7 cells, Western blotting; 10 µM each peptide"}, "[4]": {"target": "brefeldin A-inhibited guanine nucleotide-exchange protein 3 (BIG3) (human) (UniProt Q5TH69)", "test": "co-immunoprecipitation with anti-BIG3 antibody from peptide-treated MCF-7 cells, PHB2 immunoblot, band area against untreated cells; 50 µM each peptide"}, "[5]": {"target": "brefeldin A-inhibited guanine nucleotide-exchange protein 3 (BIG3) (human, UniProt Q5TH69 1-2177)", "sequence (Q5TH69 whole entry)": "as above", "test": "cell-based or functional assay"}}, "note": "Positions of bridges follow the written chain, without caps; N, C: chain ends. Non-standard residues stand in square brackets, D forms with d. No end group written: not given here. Nle = CCCC[C@H](N)C(=O)O"}
{"molecule": "PHB2 sequence-derived peptide No. 1 (11-22aa)", "values": [{"measurement": "IC50 against growth of triple-negative breast cancer cell line MDA-MB-231, 96 h", "setting": "[1]", "result": 0.462, "unit": "µM"}, {"measurement": "Ser39 phosphorylation of PHB2, band intensity compared to ERAP treatment", "setting": "[1]", "result": 40, "unit": "%"}, {"measurement": "suppression of estrogen-dependent growth of MCF-7, 10 µM, 24 h", "setting": "[1]", "result": 65, "unit": "%"}, {"measurement": "suppression of growth of MDA-MB-231, peptide alone at its IC50, 96 h", "setting": "[1]", "result": 50, "unit": "%"}, {"measurement": "suppression ratio of E2-dependent growth of MCF-7, 10 µM, 24 h", "setting": "[1]", "result": 63, "unit": "%"}, {"measurement": "suppression ratio of E2-dependent growth of MCF-7, peptide alone", "setting": "[1]", "result": 65, "unit": "%"}, {"measurement": "suppression ratio of estrogen (E2)-dependent growth of MCF-7, 10 µM, 24 h", "setting": "[1]", "result": 58, "unit": "%"}, {"measurement": "inhibition ratio of the binding between BIG3 and PHB2", "setting": "[2]", "result": 64, "unit": "%"}]}
{"molecule": "combination of PHB2 peptides No. 1 (11-22aa) and No. 5 (76-90aa)", "values": [{"measurement": "Ser39 phosphorylation of PHB2, band intensity compared to ERAP treatment", "setting": "[1]", "result": 70, "unit": "%"}, {"measurement": "growth suppressive effect on E2-dependent growth of MCF-7", "setting": "[1]", "result": 88, "unit": "%"}, {"measurement": "suppression of E2-dependent growth of MCF-7, 10 µM each", "setting": "[1]", "result": 100, "unit": "%"}, {"measurement": "suppression of growth of MDA-MB-231, both peptides at their IC50, 96 h", "setting": "[1]", "result": 62, "unit": "%"}, {"measurement": "inhibition ratio of the interaction between BIG3 and PHB2", "setting": "[3]", "result": 67, "unit": "%"}, {"measurement": "inhibition ratio of the binding between BIG3 and PHB2", "setting": "[4]", "result": 87, "unit": "%"}]}
{"molecule": "PHB2 sequence-derived peptide No. 5 (76-90aa)", "values": [{"measurement": "IC50 against growth of triple-negative breast cancer cell line MDA-MB-231, 96 h", "setting": "[1]", "result": 0.273, "unit": "µM"}, {"measurement": "Ser39 phosphorylation of PHB2, band intensity compared to ERAP treatment", "setting": "[1]", "result": 20, "unit": "%"}, {"measurement": "suppression of growth of MDA-MB-231, peptide alone at its IC50, 96 h", "setting": "[1]", "result": 50, "unit": "%"}, {"measurement": "suppression ratio of E2-dependent growth of MCF-7, 10 µM, 24 h", "setting": "[1]", "result": 51, "unit": "%"}, {"measurement": "suppression ratio of E2-dependent growth of MCF-7, peptide alone", "setting": "[1]", "result": 55, "unit": "%"}, {"measurement": "suppression ratio of estrogen (E2)-dependent growth of MCF-7, 10 µM, 24 h", "setting": "[1]", "result": 49, "unit": "%"}, {"measurement": "suppression ratio of estrogen-dependent growth of MCF-7, 10 µM, 24 h", "setting": "[1]", "result": 54, "unit": "%"}, {"measurement": "inhibition ratio of the binding between BIG3 and PHB2", "setting": "[2]", "result": 80, "unit": "%"}]}
{"molecule": "combination of cyclic PHB2 peptides 11-21aa and 76-88aa", "values": [{"measurement": "suppression of E2-dependent growth of MCF-7, 4 µM cyclic 11-21aa and 2 µM cyclic 76-88aa, 24 hours", "setting": "[1]", "result": 82, "unit": "%"}, {"measurement": "suppression ratio of E2-dependent growth of MCF-7, 4 µM cyclic 11-21aa and 2 µM cyclic 76-88aa, up to 96 hours", "setting": "[1]", "result": 88, "unit": "%"}, {"measurement": "suppression ratio of E2-dependent growth of MCF-7, 10 µM each, 24 h", "setting": "[1]", "result": 96, "unit": "%"}, {"measurement": "inhibition ratio of the interaction between BIG3 and PHB2", "setting": "[3]", "result": 81, "unit": "%"}]}
{"molecule": "B1", "values": [{"measurement": "suppression ratio of E2-dependent growth of MCF-7, in combination with 10 µM No. 5 (76-90aa)", "setting": "[5]", "result": "≥ 90", "unit": "%"}]}
{"molecule": "B2", "values": [{"measurement": "suppression ratio of E2-dependent growth of MCF-7, in combination with 10 µM No. 5 (76-90aa)", "setting": "[5]", "result": "≥ 90", "unit": "%"}]}
{"molecule": "B3", "values": [{"measurement": "suppression ratio of E2-dependent growth of MCF-7, in combination with 10 µM No. 5 (76-90aa)", "setting": "[5]", "result": "≥ 90", "unit": "%"}]}
{"molecule": "B4", "values": [{"measurement": "suppression ratio of E2-dependent growth of MCF-7, in combination with 10 µM No. 5 (76-90aa)", "setting": "[5]", "result": "≥ 90", "unit": "%"}]}
{"molecule": "B5", "values": [{"measurement": "suppression ratio of E2-dependent growth of MCF-7, in combination with 10 µM No. 5 (76-90aa)", "setting": "[5]", "result": "≥ 90", "unit": "%"}]}
{"molecule": "B6", "values": [{"measurement": "suppression ratio of E2-dependent growth of MCF-7, peptide alone", "setting": "[5]", "result": "~10", "unit": "%"}]}
{"molecule": "B7", "values": [{"measurement": "Ser39 phosphorylation of PHB2, relative to ERAP treatment", "setting": "[5]", "result": 30, "unit": "%"}, {"measurement": "suppression ratio of E2-dependent growth of MCF-7, 24 h, 50 µM", "setting": "[5]", "result": 57, "unit": "%"}]}
{"molecule": "B8", "values": [{"measurement": "IC50 for E2-dependent growth of MCF-7", "setting": "[5]", "result": 4.06, "unit": "µM"}, {"measurement": "suppression ratio of E2-dependent growth of MCF-7, 4 µM, up to 96 hours", "setting": "[5]", "result": 41, "unit": "%"}, {"measurement": "suppression ratio of E2-dependent growth of MCF-7, 10 µM, 24-hour treatment", "setting": "[5]", "result": 53, "unit": "%"}, {"measurement": "suppression ratio of E2-dependent growth of MCF-7, 10 µM, after 96 hours", "setting": "[5]", "result": 67, "unit": "%"}]}
{"molecule": "B9", "values": [{"measurement": "IC50 for E2-dependent growth of MCF-7", "setting": "[5]", "result": 2.11, "unit": "µM"}, {"measurement": "suppression ratio of E2-dependent growth of MCF-7, 2 µM, up to 96 hours", "setting": "[5]", "result": 59, "unit": "%"}, {"measurement": "suppression ratio of E2-dependent growth of MCF-7, 10 µM, 24-hour treatment", "setting": "[5]", "result": 58, "unit": "%"}, {"measurement": "suppression ratio of E2-dependent growth of MCF-7, 10 µM, after 96 hours", "setting": "[5]", "result": 72, "unit": "%"}]}
{"molecule": "B10", "values": [{"measurement": "suppression ratio of estrogen-dependent growth of MCF-7, 10 µM, 24 h", "setting": "[5]", "result": 19, "unit": "%"}]}
{"molecule": "B11", "values": [{"measurement": "suppression ratio of estrogen-dependent growth of MCF-7, 10 µM, 24 h", "setting": "[5]", "result": 8, "unit": "%"}]}
{"molecule": "B12", "values": [{"measurement": "suppression ratio of estrogen-dependent growth of MCF-7, 10 µM, 24 h", "setting": "[5]", "result": 38, "unit": "%"}]}
{"molecule": "B13", "values": [{"measurement": "suppression ratio of estrogen-dependent growth of MCF-7, 10 µM, 24 h", "setting": "[5]", "result": 37, "unit": "%"}]}
{"molecule": "B14", "values": [{"measurement": "suppression ratio of estrogen-dependent growth of MCF-7, 10 µM, 24 h", "setting": "[5]", "result": 13, "unit": "%"}]}
{"molecule": "B15", "values": [{"measurement": "suppression ratio of estrogen-dependent growth of MCF-7, 10 µM, 24 h", "setting": "[5]", "result": 20, "unit": "%"}]}
{"molecule": "B16", "values": [{"measurement": "suppression ratio of estrogen-dependent growth of MCF-7, 10 µM, 24 h", "setting": "[5]", "result": 17, "unit": "%"}]}
{"molecule": "B17", "values": [{"measurement": "suppression ratio of estrogen-dependent growth of MCF-7, 10 µM, 24 h", "setting": "[5]", "result": 59, "unit": "%"}]}
{"molecule": "B18", "values": [{"measurement": "suppression ratio of estrogen-dependent growth of MCF-7, 10 µM, 24 h", "setting": "[5]", "result": 61, "unit": "%"}]}
{"molecule": "B19", "values": [{"measurement": "suppression ratio of estrogen-dependent growth of MCF-7", "setting": "[5]", "result": "~65", "unit": "%"}]}
